Reference: PMC9028814

Target: Acid-solubilized type I bovine collagen (bovine) (UniProt P02453)
Test: SPR

Sequence of UniProt P02453 (P02453 162-1217, chain 1 of 2): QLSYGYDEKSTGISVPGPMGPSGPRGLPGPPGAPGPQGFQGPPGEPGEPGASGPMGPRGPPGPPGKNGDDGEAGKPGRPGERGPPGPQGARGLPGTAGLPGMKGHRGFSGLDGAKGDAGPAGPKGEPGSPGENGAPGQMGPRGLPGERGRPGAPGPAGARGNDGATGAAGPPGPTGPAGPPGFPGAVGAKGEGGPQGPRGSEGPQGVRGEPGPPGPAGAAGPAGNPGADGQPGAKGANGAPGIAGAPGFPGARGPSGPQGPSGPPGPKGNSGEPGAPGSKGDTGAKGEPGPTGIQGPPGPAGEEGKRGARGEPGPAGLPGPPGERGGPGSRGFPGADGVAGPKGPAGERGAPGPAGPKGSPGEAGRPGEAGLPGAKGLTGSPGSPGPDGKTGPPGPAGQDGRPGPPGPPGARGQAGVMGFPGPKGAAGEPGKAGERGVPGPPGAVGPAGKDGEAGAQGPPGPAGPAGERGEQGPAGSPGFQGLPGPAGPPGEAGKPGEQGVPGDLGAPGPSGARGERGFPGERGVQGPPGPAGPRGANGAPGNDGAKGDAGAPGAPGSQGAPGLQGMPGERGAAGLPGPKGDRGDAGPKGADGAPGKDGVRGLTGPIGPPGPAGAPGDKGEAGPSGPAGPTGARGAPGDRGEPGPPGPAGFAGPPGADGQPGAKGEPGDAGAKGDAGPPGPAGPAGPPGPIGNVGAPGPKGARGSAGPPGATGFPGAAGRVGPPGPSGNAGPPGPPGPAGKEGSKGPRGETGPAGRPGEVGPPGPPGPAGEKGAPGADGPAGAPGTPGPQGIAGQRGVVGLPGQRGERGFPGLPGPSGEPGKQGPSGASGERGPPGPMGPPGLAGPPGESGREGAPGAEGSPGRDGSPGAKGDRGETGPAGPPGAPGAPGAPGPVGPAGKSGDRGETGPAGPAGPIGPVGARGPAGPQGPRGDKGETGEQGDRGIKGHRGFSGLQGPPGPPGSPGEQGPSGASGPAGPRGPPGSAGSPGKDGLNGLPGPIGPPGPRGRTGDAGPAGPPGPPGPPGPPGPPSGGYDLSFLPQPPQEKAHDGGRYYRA
Sequence of UniProt P02453 (P02465 80-1117, chain 2 of 2, further chain): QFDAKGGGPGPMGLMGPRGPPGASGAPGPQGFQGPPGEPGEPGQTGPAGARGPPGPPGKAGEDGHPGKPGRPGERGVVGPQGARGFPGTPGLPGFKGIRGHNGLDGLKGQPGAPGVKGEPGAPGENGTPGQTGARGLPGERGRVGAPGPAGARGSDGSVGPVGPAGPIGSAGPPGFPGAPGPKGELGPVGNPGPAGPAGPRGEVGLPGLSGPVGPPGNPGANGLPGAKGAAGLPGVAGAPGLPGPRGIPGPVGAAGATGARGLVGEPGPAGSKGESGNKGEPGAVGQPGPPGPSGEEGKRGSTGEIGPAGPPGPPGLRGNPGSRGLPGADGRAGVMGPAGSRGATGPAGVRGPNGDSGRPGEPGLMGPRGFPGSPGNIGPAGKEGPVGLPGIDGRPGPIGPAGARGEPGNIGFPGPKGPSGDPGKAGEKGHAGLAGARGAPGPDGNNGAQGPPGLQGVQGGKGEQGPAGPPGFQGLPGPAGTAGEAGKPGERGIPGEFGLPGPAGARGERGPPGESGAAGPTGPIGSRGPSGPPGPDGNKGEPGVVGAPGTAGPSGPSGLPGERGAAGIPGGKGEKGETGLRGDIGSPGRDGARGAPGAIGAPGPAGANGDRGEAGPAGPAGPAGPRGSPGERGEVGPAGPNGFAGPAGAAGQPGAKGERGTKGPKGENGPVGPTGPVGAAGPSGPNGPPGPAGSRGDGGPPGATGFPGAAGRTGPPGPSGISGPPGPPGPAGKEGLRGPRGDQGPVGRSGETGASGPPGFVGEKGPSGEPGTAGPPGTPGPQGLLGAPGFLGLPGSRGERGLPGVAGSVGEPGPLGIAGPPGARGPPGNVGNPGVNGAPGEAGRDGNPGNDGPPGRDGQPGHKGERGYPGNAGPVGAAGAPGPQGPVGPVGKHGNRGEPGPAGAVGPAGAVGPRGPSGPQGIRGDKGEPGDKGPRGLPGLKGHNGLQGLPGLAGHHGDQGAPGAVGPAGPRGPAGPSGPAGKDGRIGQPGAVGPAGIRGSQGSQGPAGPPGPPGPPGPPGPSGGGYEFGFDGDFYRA

Row | Substance | koff [s⁻¹] | kon [M⁻¹ s⁻¹]
1 | Human plasma von Willebrand factor (from UniProt P04275 764-2813) (natural protein) | 0.00073 | 
2 | Recombinant wild type von Willebrand factor (from UniProt P04275 764-2813) (natural protein) | 0.000932 | 2.36e+06
